Data as given in ChEMBL document CHEMBL4321859, “Unforeseen Possibilities To Investigate the Regulation of Polyamine Metabolism Revealed by Novel C-Methylated Spermine Derivatives” (J Med Chem, 2019).

Substrate: CC(CN)CNCCCCNCC(C)CN
Assay: Substrate activity at recombinant human SMOX assessed as Km at 2000 to 6000 uM
Format: ADME

B1: Spermine oxidase (Homo sapiens) (protein)
chain: MQSCESSGDSADDPLSRGLRRRGQPRVVVIGAGLAGLAAAKALLEQGFTDVTVLEASSHIGGRVQSVKLGHATFELGATWIHGSHGNPIYHLAEANGLLEETTDGERSVGRISLYSKNGVACYLTNHGRRIPKDVVEEFSDLYNEVYNLTQEFFRHDKPVNAESQNSVGVFTREEVRNRIRNDPDDPEATKRLKLAMIQQYLKVESCESSSHSMDEVSLSAFGEWTEIPGAHHIIPSGFMRVVELLAEGIPAHVIQLGKPVRCIHWDQASARPRGPEIEPRGEGDHNHDTGEGGQGGEEPRGGRWDEDEQWSVVVECEDCELIPADHVIVTVSLGVLKRQYTSFFRPGLPTEKVAAIHRLGIGTTDKIFLEFEEPFWGPECNSLQFVWEDEAESHTLTYPPELWYRKICGFDVLYPPERYGHVLSGWICGEEALVMEKCDDEAVAEICTEMLRQFTGNPNIPKPRRILRSAWGSNPYFRGSYSYTQVGSSGADVEKLAKPLPYTESSKTAPMQVLFSGEATHRKYYSTTHGALLSGQREAARLIEMYRDLFQQGT
With B1 the Km was 121 µM and the Vmax was 0.124 µmol/min/mg.
